According to the supplement of paper PMC7877785:
± gives the uncertainty stated by the source.

Assay: self-splicing fitness, log relative to wild type (ln ratio); higher = more splicing; Tetrahymena group I intron in knt gene, E. coli kanamycin selection, DiMSum; sequences stand for … in CUCUCU…GGAGGGAAAAGUUAUCAGGCAUGCACCUGGUAGCUAGUCUUUAAACCAAUAGAUUGCAUCGGUUUAAAAGGCAAGACCGUCAAAUUGCGGGAAAGGGGUCAACAGCCGUUCAGUACCAAGUCUCAGGGGAAACUUUGAGAUGGCCUUGCAAAGGGUAUGGUAAUAAGCUGACGGACAUGGUCCUAACCACGCAGCCAAGUCCUAAGUCAACAGAUCUUCUGUUGAUAUGGAUGCAGUUCACAGACUAAAUGUCGGUCGGGGAAGAUGUAUUCUUCUCAUAAGAUAUAGUCGGACCUCUCCUUAAUGGGAGCUAGCGGAUGAAGUGAUGCAACACUGGAGCCGCUGGGAACUAAUUUGUAUGCGAAAGUAUAUUGAUUAGUUUUGGAGUACUCGUGGUCG
In short: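 DiMSum derived fitness as the error-weighted combination of fold changes across replicates, kanamycin versus no kanamycin, normalised to wild type. E. coli BL21(DE3) held the library, which randomised all eight P1ex-region intron nucleotides within the knt kanamycin-resistance gene on pET-22b(+). Six replicate transformations grew overnight at 37°C or 30°C on LB agar with or without 25 μg/mL kanamycin, also containing 100 μg/mL carbenicillin, 50 μM IPTG and 0.2% rhamnose, and pooled colonies were amplicon-sequenced on an Illumina HiSeq 2500.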

Sequence | self-splicing fitness (ln) (30 °C) | self-splicing fitness (ln) (37 °C)
GGUAAGCAAUAUUACGGCGU | 0.139 ± 0.13 | -0.0376 ± 0.15
GGUAAGCAAUAUUACGGGUA | -1.98 ± 0.22 | -1.71 ± 0.18
GGUAAGCAAUAUUACGUAGA | -1.56 ± 0.13 | -1.54 ± 0.21
GGUAAGCAAUAUUACGUAGC | -0.417 ± 0.41 | 
GGUAAGCAAUAUUACGUAUC | -3.54 ± 0.23 | -1.39 ± 0.45
GGUAAGCAAUAUUACGUAUG | -3.72 ± 0.29 | -2.32 ± 0.18
GGUAAGCAAUAUUACGUCGU | -1 ± 0.11 | -0.732 ± 0.12
GGUAAGCAAUAUUACGUGGG | -4.06 ± 0.3 | -2.36 ± 0.25
GGUAAGCAAUAUUACGUGUA | -1.73 ± 0.078 | -0.95 ± 0.086
GGUAAGCAAUAUUACGUUCA | -0.432 ± 0.081 | 0.0273 ± 0.12
GGUCAGCAAUAUUACGAAUG | -0.0371 ± 0.078 | -0.989 ± 0.1
GGUCAGCAAUAUUACGAUAG | -1.37 ± 0.077 | 0.0315 ± 0.1
GGUCAGCAAUAUUACGCAAC | -0.639 ± 0.11 | -0.859 ± 0.17
GGUCAGCAAUAUUACGCAGA |  | -2.72 ± 0.33
GGUCAGCAAUAUUACGCAUG | -1.15 ± 0.1 | -0.079 ± 0.12
GGUCAGCAAUAUUACGCCGC | -2.96 ± 0.26 | -2.62 ± 0.36
GGUCAGCAAUAUUACGCGGU | -3.97 ± 0.39 | -2.26 ± 0.27
GGUCAGCAAUAUUACGCGUA | -0.325 ± 0.067 | -0.158 ± 0.07
GGUCAGCAAUAUUACGCUUC | -1.12 ± 0.14 | -0.693 ± 0.24
GGUCAGCAAUAUUACGGACC | -3.67 ± 0.18 | -2.08 ± 0.22
GGUCAGCAAUAUUACGGAGA |  | -1.69 ± 0.28
GGUCAGCAAUAUUACGGAGU | -0.947 ± 0.086 | 0.0968 ± 0.12
GGUCAGCAAUAUUACGGCAA | 0.415 ± 0.065 | 0.217 ± 0.083
GGUCAGCAAUAUUACGGCAU | -0.469 ± 0.073 | 0.642 ± 0.1

Sequence | self-splicing fitness (ln) (30 °C) | self-splicing fitness (ln) (37 °C)
GGUCAGCAAUAUUACGGCUC | -2.39 ± 0.21 | -1.68 ± 0.3
GGUCAGCAAUAUUACGGCUG | -0.728 ± 0.078 | -0.439 ± 0.091
GGUCAGCAAUAUUACGGGGU | -3.37 ± 0.12 | -0.793 ± 0.086
GGUCAGCAAUAUUACGGUGG | -4.17 ± 0.28 | -1.32 ± 0.13
GGUCAGCAAUAUUACGUCGC | -0.517 ± 0.11 | 0.282 ± 0.12
GGUCAGCAAUAUUACGUCUC | 0.385 ± 0.17 | -0.113 ± 0.15
GGUCAGCAAUAUUACGUGCU | -1.5 ± 0.052 | -0.199 ± 0.067
GGUCAGCAAUAUUACGUUAA | -1.4 ± 0.099 | -0.249 ± 0.088
GGUCAGCAAUAUUACGUUGG | -3.35 ± 0.21 | -2.51 ± 0.2
GGUGAGCAAUAUUACGAACG | -0.652 ± 0.13 | -1.23 ± 0.17
GGUGAGCAAUAUUACGACUU | -0.531 ± 0.11 | 0.294 ± 0.12
GGUGAGCAAUAUUACGAUAG | -0.576 ± 0.23 | -2.81 ± 0.34
GGUGAGCAAUAUUACGCAUA | -0.925 ± 0.15 | -1.55 ± 0.22
GGUGAGCAAUAUUACGCUUU | -2.63 ± 0.4 | -3.04 ± 0.47
GGUGAGCAAUAUUACGGCAC | -1.85 ± 0.17 | -0.155 ± 0.18
GGUGAGCAAUAUUACGGCAG | -2.25 ± 0.32 | 
GGUGAGCAAUAUUACGGCUA | -0.0423 ± 0.12 | 0.0315 ± 0.14
GGUGAGCAAUAUUACGGCUG | -1.06 ± 0.15 | -0.543 ± 0.21
GGUGAGCAAUAUUACGGGCA | -1.68 ± 0.17 | -0.406 ± 0.17
GGUGAGCAAUAUUACGGUGA | -2.81 ± 0.23 | -1.28 ± 0.21
GGUGAGCAAUAUUACGGUGC | -2.09 ± 0.14 | -0.734 ± 0.2
GGUGAGCAAUAUUACGGUUG | -3.99 ± 0.37 | -2.36 ± 0.25
GGUGAGCAAUAUUACGUAUU | -1.96 ± 0.31 | -1.94 ± 0.47
GGUGAGCAAUAUUACGUCAA | -3.58 ± 0.46 | -2.78 ± 0.31

Sequence | self-splicing fitness (ln) (30 °C) | self-splicing fitness (ln) (37 °C)
GGUGAGCAAUAUUACGUCCG | -1.13 ± 0.21 | -0.66 ± 0.29
GGUGAGCAAUAUUACGUCCU | -0.834 ± 0.23 | -1.45 ± 0.22
GGUGAGCAAUAUUACGUCGC | -3.57 ± 0.49 | 
GGUGAGCAAUAUUACGUCGU | -2.57 ± 0.15 | -1.91 ± 0.2
GGUUAGCAAUAUUACGAACA | -0.6 ± 0.18 | 0.626 ± 0.25
GGUUAGCAAUAUUACGAGUC | -3 ± 0.39 | -1.16 ± 0.23
GGUUAGCAAUAUUACGAUUU | 0.309 ± 0.089 | 0.0839 ± 0.12
GGUUAGCAAUAUUACGCCGG | -2.48 ± 0.5 | -3.55 ± 0.42
GGUUAGCAAUAUUACGCCGU | -1.91 ± 0.22 | -1.03 ± 0.21
GGUUAGCAAUAUUACGCCUA | 0.0795 ± 0.32 | -1.32 ± 0.25
GGUUAGCAAUAUUACGCGCG | -0.271 ± 0.15 | 0.879 ± 0.15
GGUUAGCAAUAUUACGGACG | 0.908 ± 0.17 | -0.388 ± 0.22
GGUUAGCAAUAUUACGGCUA | -0.605 ± 0.088 | 0.861 ± 0.13
GGUUAGCAAUAUUACGGUUA | -1.23 ± 0.11 | -0.486 ± 0.082
GGUUAGCAAUAUUACGGUUG | -2.73 ± 0.32 | -1.57 ± 0.33
GGUUAGCAAUAUUACGGUUU | -0.608 ± 0.086 | -0.0158 ± 0.11
GGUUAGCAAUAUUACGUAAG | -0.619 ± 0.14 | -0.436 ± 0.23
GGUUAGCAAUAUUACGUCCG | -0.773 ± 0.11 | -0.617 ± 0.2
GGUUAGCAAUAUUACGUGCG | -0.0643 ± 0.066 | 0.0143 ± 0.078
GGUUAGCAAUAUUACGUUGG | -4.01 ± 0.34 | -1.72 ± 0.18
GUAAAGCAAUAUUACGAACG | -0.437 ± 0.077 | -0.132 ± 0.12
GUAAAGCAAUAUUACGACAA | -0.153 ± 0.12 | -0.2 ± 0.13
GUAAAGCAAUAUUACGAGCA | 0.322 ± 0.08 | 0.673 ± 0.11
GUAAAGCAAUAUUACGAUCC | -0.0218 ± 0.18 | 0.363 ± 0.29

Sequence | self-splicing fitness (ln) (30 °C) | self-splicing fitness (ln) (37 °C)
GUAAAGCAAUAUUACGCAAG | -2.89 ± 0.18 | -0.51 ± 0.12
GUAAAGCAAUAUUACGCAAU | -0.316 ± 0.098 | -0.564 ± 0.16
GUAAAGCAAUAUUACGCACG | -0.557 ± 0.067 | -0.242 ± 0.093
GUAAAGCAAUAUUACGCGUA | -1.25 ± 0.094 | -0.105 ± 0.12
GUAAAGCAAUAUUACGCUCU | -2.11 ± 0.19 | -0.206 ± 0.24
GUAAAGCAAUAUUACGCUGA | -1.4 ± 0.072 | -0.903 ± 0.099
GUAAAGCAAUAUUACGCUUC | -3.5 ± 0.23 | -1.97 ± 0.23
GUAAAGCAAUAUUACGGCCC | 0.25 ± 0.16 | 0.443 ± 0.24
GUAAAGCAAUAUUACGGCCU | -0.0192 ± 0.12 | 0.105 ± 0.12
GUAAAGCAAUAUUACGGGAC | -1.62 ± 0.12 | -1.18 ± 0.11
GUAAAGCAAUAUUACGGUGG | -2.81 ± 0.11 | -1.48 ± 0.11
GUAAAGCAAUAUUACGGUUA | -0.077 ± 0.058 | 0.569 ± 0.086
GUAAAGCAAUAUUACGUAAC | -1.7 ± 0.17 | -1.38 ± 0.28
GUAAAGCAAUAUUACGUAAU | -1.58 ± 0.073 | -0.314 ± 0.098
GUAAAGCAAUAUUACGUAGC | -2.6 ± 0.11 | -0.771 ± 0.097
GUAAAGCAAUAUUACGUAGG | -2.5 ± 0.11 | -1.35 ± 0.15
GUAAAGCAAUAUUACGUAUG | -4.04 ± 0.25 | -0.559 ± 0.12
GUAAAGCAAUAUUACGUCAA | -1.56 ± 0.098 | -0.85 ± 0.097
GUAAAGCAAUAUUACGUCAU | -0.555 ± 0.095 | -0.359 ± 0.096
GUAAAGCAAUAUUACGUGCU | -2.34 ± 0.11 | -0.431 ± 0.12
GUAAAGCAAUAUUACGUGGC | -3.42 ± 0.18 | -2.48 ± 0.2
GUACAGCAAUAUUACGAACA | -1.51 ± 0.11 | -0.736 ± 0.11
GUACAGCAAUAUUACGACUA | -1.16 ± 0.13 | -0.637 ± 0.12
GUACAGCAAUAUUACGAGAA | -2.36 ± 0.45 | -1.51 ± 0.27
